From the nanobody polyreactivity screen of Harvey et al. (2022)

experiment: yeast display, Sf9 membrane polyspecificity reagent, FACS + sequencing; frameworks hold sequencing errors
Method in brief: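 A synthetic nanobody library was expressed on Saccharomyces cerevisiae BJ5465 by galactose induction for 36–48 hours. The library was stained for 1 hour at 4 °C with 10% biotinylated, detergent-solubilized Sf9 membrane reagent and enriched with streptavidin microbeads before FACS. Low and high (top ~1%) gates were set on anti-HA fluorescence for expression and streptavidin fluorescence for reagent binding, and each polyreactivity label reflects the gate of origin.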

Question: Which “polyreactivity (PSR sort gate)” value does the source give for “QVQLVESGGGLVQAGGSLRLSCAASGSTFGYYAMGWYRQAPGKERELVAAISASGSRTYYADSVKGRFTISRDNAKNTVYSQMNSQKPEDTAVYYCPALQYRRKIPTAYAGDYWGQGTQVTVSS” here?
Answer: high polyreactivity

Question: For “QVQLVESGGGLVQAGGSLRLSCAASGIFRQNAMGWYRQAPGKERELVAGISQSGGSTYYADSVKGRFTISRDNAKNTVYLQMNSLKPEDTAVYYCAGVSIWGYDYWGQGTQVTVSS”, which “polyreactivity (PSR sort gate)” value is on record?
Answer: low polyreactivity

Question: Which “polyreactivity (PSR sort gate)” value does the source give for “QVQLVESGGGLVQAGGSLRLSCAASGSIFYVNAMGWYRQAPGKERELVAAINWSGGRTYYADSVKGRFTISRDTAKNTVYLQMNSLKPEDTAVYYCAATVRRRYERYNYWGQGTQVTVSS” here?
Answer: high polyreactivity

Question: With “QVQLVESGGGLVQAGGSLRLSCAASGSTFPGYAMGWYRQAPGKDRELVAAISKRGGSTRYADSVKGRFTISRDKAKNTVYLQMNSLKPEDTAVYYCNAVYTKRYKYYYTSGYWGQGTQVTVSS” as the sequence, how does the “polyreactivity (PSR sort gate)” value read?
Answer: high polyreactivity

Question: Which “polyreactivity (PSR sort gate)” value does the source give for “QVQLVESGGGLVQAGGSLRLSCAATGSIFRGYAMGWYRQAPGKERELVAAITSGGSTNYADSVKGRFTISRDNAKNTVYLQMNSLKPEDTAVYYCAKDLALVAPLSDYWGQGTQVTVSW” here?
Answer: low polyreactivity

Question: Which “polyreactivity (PSR sort gate)” value does the source give for “QVQLVESGGGLVQAGGSLRLSCAASGSIFTQYAMGWYRQAPGKERELVAAITSSGGSTHYADSVKGRFTISRDNAKNTVYLQMNSLKPEDTAVYYCAVPSFVYATFPYGYWGQGTQVTVSS” here?
Answer: low polyreactivity

Question: With “QVQLVESGGGLVQAGGSLRLSCAASGIIFTSNTMGWYRQAPGKEREFVASINWNGSSTNADSVKGRFTISRDNAKNTVYLQMNSLKPEDTAVYYCNADYNRNSVQFSLYDYWGQGTQVTVSS” as the sequence, how does the “polyreactivity (PSR sort gate)” value read?
Answer: low polyreactivity

Question: With “QVQLVESGGGLVQAGGSLRLSCAASGRIFRRNTMGWYRQAPGKEREVVAAITSSGGSTYADSVKGRFTISRDNAKNTVYLQMNSLKPEDTAVYYCATYVAYHRGYRTYDHWGQGTQVTVSS” as the sequence, how does the “polyreactivity (PSR sort gate)” value read?
Answer: low polyreactivity

Question: For “QDQLVESGGGLVQAGVSLRLSCAASGSIFNRNAMGWYRQAPGKERELVADISWSGGSTYYADSVKGRFTISRDNAKNTVYLQMNSLKPEDTAVYYCADKSTGRWWRAGYDYWGQGTQVTVSS”, which “polyreactivity (PSR sort gate)” value is on record?
Answer: high polyreactivity

Question: Which “polyreactivity (PSR sort gate)” value does the source give for “QVQLVESGGGLVQAGGSLRLTCDASGSTFYPYAMGWYRQAPWKERELVAAISSRDGRTYYADSVKGRFTISRDNAKNTVYLQMNSLKPEDTAVYYCAATSFNNGHRYDYWGQGTQVTVSS” here?
Answer: high polyreactivity

Question: With “QFQLVESGGGLVQAGGSLRLSCAASGSFSGTNAMGWYRQAPGKERELVAGISYGGGSTYYADSVKGRFTISRDNAKNTVYLQMNSLKPEDTAVYYCAKYYAPYRFYYCGQGTQVTVSS” as the sequence, how does the “polyreactivity (PSR sort gate)” value read?
Answer: high polyreactivity

Question: For “QVQLVESGGGLVQAGGSLRLSCAASGRTIPYKSMGWYRQAPGKERELVAAITSGGTTNYADSVKGRFTISRDNAKNTVYLQMNSLKPVDTAVYYCAADSDASSQFRRDYWGQGTQVNVSS”, which “polyreactivity (PSR sort gate)” value is on record?
Answer: low polyreactivity

Question: With “QVQLVESGGGLVQAGGRLRLSCADSGSTFWSYAIGWYRQSPGKEREFVAAISSSDDSTYYADSVKGRFTISRDNAKNTVYLQMNSLKPEDTAVYYCATSWYIYPFDYWGQGTQVTVSS” as the sequence, how does the “polyreactivity (PSR sort gate)” value read?
Answer: low polyreactivity

Question: For “QVQLVESGGGLVQAGGSLRLSCAASGSTFSYYNMGLYIQATGKERELLAAINRRGDSTYADSVKWRFTISRDNAKNTVYLQMNSLKPEDTAVYDCAADASVGVSGMDYWGQGTQVTVSS”, which “polyreactivity (PSR sort gate)” value is on record?
Answer: low polyreactivity

Question: For “QVQLVESGGGLVQAGGSLRLSCAASGSIFYWNAMGWYRQAPGKERELVAAISYNGGSTYYADSVKGRFTISRDNAKNTVYLQMNSLKPEDTAVYYCAADNYYYGYEYWGQGTQVTVSS”, which “polyreactivity (PSR sort gate)” value is on record?
Answer: high polyreactivity

Question: Which “polyreactivity (PSR sort gate)” value does the source give for “QVQLVESGGGLVQAGGSLRLSCAASGSIFLYNAMGWYIQAPGKERELVAAISKSGGSTYYADSVKGRFTISRDNAKNTVYLQMNSLKPEDTAVYYCAADFLPQSYNWYDYWGQGTEVTVSS” here?
Answer: low polyreactivity

Question: For “QDQLVESGGGLVQAGGSLRLICAASGLTFKVYAMGWYRQAPGKERELVAAISWSGGSTYYADSVKGRFTISRDNAKNTVYLQMNSLKPEDTAVYYCAVEASYYVVFFPYEYWGQGTQVTVSS”, which “polyreactivity (PSR sort gate)” value is on record?
Answer: low polyreactivity

Question: With “QVQLVESAGGLVQAGGSLSLSCAASGRTFGQYPMGWYRKAPGKERELVAAITRSAGSTYYADSVKGRFTISRDNAKNNVYLQMNSLKPEDTAVSYCAKRFYWSVDGYRTAKYYYWGQGTQVTVSS” as the sequence, how does the “polyreactivity (PSR sort gate)” value read?
Answer: high polyreactivity

Question: Which “polyreactivity (PSR sort gate)” value does the source give for “QVQLVESGGGLVQAGGSLRLSCAASGSILGGNAMGWYRQAPGKERELVAAITFSGGGTYYADSVKGRFTISRDNGKNTVYLQMNSLKPEDTALYNCAADKDGYTYEFDYWGQGTQVTVSS” here?
Answer: low polyreactivity

Question: Which “polyreactivity (PSR sort gate)” value does the source give for “QVQLVESGGGLVQAGGSLRLSCAASGRTFRYNAMGWYRQAPGKERELVAAITQSGGSTYYADSVKGRFTISRDNAKNTVYLQMNSLKPEDTAVYYCAKVRERINYDYWGQGTQVTVSS” here?
Answer: low polyreactivity

Question: For “QVQLVESGGGLVQAGGSLRLSCAASGSTFTGYAMGWYRQAPGKERELVAAITRGGSTYYADSVKGRFTISRDNAKNTVYLQMNSLKPEDTAVYYCAAKPSSREPTGPRYYYWGQGTQVTVSS”, which “polyreactivity (PSR sort gate)” value is on record?
Answer: high polyreactivity

Question: Which “polyreactivity (PSR sort gate)” value does the source give for “QFQLVESGGGLVQAGGSLRLSCAASGRIFHSNAMGWYRQAPGKERELVAAITWSTGRTYYADSVKGRFTISRDNAKNTVYLQMNSLKPEDTAVYYCFRFSYYTGDYWGQGTQVTVSS” here?
Answer: high polyreactivity

Question: Which “polyreactivity (PSR sort gate)” value does the source give for “QVQLQESGGGLVQAGGSLRLSCAASGTMSDRPGMGWYRQAPAKNAIVATIDRGTNTNYADSVKGRFTISRDNAKNTVSLQMNSLKPEDSAVYNCAAVGRYYFSLDYWGPGTQVTVSS” here?
Answer: low polyreactivity

Question: With “QVQLVESGGGLVQAGGSLRLSCAASGRTFADNAMGWYRQAPGKERELVASISSGTSTNYADSVKGRFTISRDNAKNTVYLQMNSLKPEDTAVYYCAADFSVYTEEDDSWGHGTQVTVSS” as the sequence, how does the “polyreactivity (PSR sort gate)” value read?
Answer: low polyreactivity

Question: For “QVQLVESGGGLVQAGGSLRLSWAASGFTFPAYPMGWYRQAPGKERELVASISSSGRTNYADSEKGRFTISRDNAKNTVYLEMYSLKPEDTAVYYCAALLKQRSTSYGYWGQGSQVTVSS”, which “polyreactivity (PSR sort gate)” value is on record?
Answer: high polyreactivity

Question: With “QLQLVESGGGLVQAGGSLRLSCAASGSIFRWYTMGWYRQAPGKERELVAAISSGGSTNYADSVKGRFTISRDNAKNTVYLQMNSLKPEDTAVYYCAARAIYKSKYDYWGQGTQVTVSS” as the sequence, how does the “polyreactivity (PSR sort gate)” value read?
Answer: high polyreactivity

Question: Which “polyreactivity (PSR sort gate)” value does the source give for “QVHLVESCGGLVQAGGSLRLSCAASGNTFVYNDMGWYRQAPGKERELVDDIRYSGSTYYADSVKGRFTISRDNAKNTVYLQMNSLKPEDTAVYYCAKAYYVLSWMGYWGQGTQVTVSS” here?
Answer: low polyreactivity

Question: With “QVQLVESGGGLVQAGGSLRLSCAASGFIFDTYVMGWYRQAPGKERELVAAISRTGGRTYYADSVKGRFTISRDNAKNTVYLQMNSLKPEDTAVYYCAAKVYYPYLFTSYDYWGQGTQVTVSS” as the sequence, how does the “polyreactivity (PSR sort gate)” value read?
Answer: high polyreactivity

Question: For “QVQLVESGGGLVQAGGSLRLSCAASGNTFYRYAMGWYRQAPGKERELVAAISWSGSSTYYADSVKGRFTISRDNAKNTVYLQMNSLKPEDTAVYYCAVYYTRIGPRYDYWGQGTQVTVSS”, which “polyreactivity (PSR sort gate)” value is on record?
Answer: high polyreactivity

Question: For “QVQLVESGGGLVQAGGSLRLSCAASGSISYTYAMGWYRQAPGKERELVAAISYSEGITYYADSVKGRFTISRDNAKNTVYLQMNSLKPEDTAVYYCAVEGVYPYYDQSEYDYWGQGTQVTVSS”, which “polyreactivity (PSR sort gate)” value is on record?
Answer: high polyreactivity

Question: With “QVQLVESGGGLVQAGGSLRLSCAASGRTFGEYAMGWYRQAPGKERELVAAISSAGSTYYADSVKGRFTISRDNAKNTVYLQMNSMKPDDTAVYYCASSRKYGYGYWGQRTQVTVSS” as the sequence, how does the “polyreactivity (PSR sort gate)” value read?
Answer: high polyreactivity

Question: For “QDQRVESGGGIDQAGGSLRLSCAASGSTVDFNAMGWYRQAPGTERELVAAITYSGGSTYYADSVKGRFTISRDNAKNTVYLQMNSLKPQDTAVYYCAAEDVYPGSIDMDYWGQGTQVSVSS”, which “polyreactivity (PSR sort gate)” value is on record?
Answer: low polyreactivity

Question: For “QVHLVESGGGIVQARGSLRLSCDASGFIFYDYAMGSYRLAPGKEWELVAAISKRGGSRYYADSVKGRFTISRDNAKNTVYLQMNSLKPEDTAVYYCATEVEPYAYGYWGQGTQVTVSS”, which “polyreactivity (PSR sort gate)” value is on record?
Answer: high polyreactivity

Question: Which “polyreactivity (PSR sort gate)” value does the source give for “QVQLVESGGGLVQAVGSLRLSCAPSGSLFPGYAMGWYRQAPGKERELVAAITFSGGSTYYADSVKGRFTISRDYAKQSVYLPMNSLKPEDTAVYYCAAPGWYGGYPSYYYWGQGTQVTVSS” here?
Answer: low polyreactivity

Question: Which “polyreactivity (PSR sort gate)” value does the source give for “QVQLVESGGGLVQAGGSLRLSCAASGFTFTQYGMGWYRQAPGKEREFVATIRFSGDNTYYADSVKGRFTISRDNAKNTVYLQMNSLKPEDTAVYYCNADNRAFFVYPVSKRYDSWGQGSQVTVSS” here?
Answer: low polyreactivity

Question: With “QVQLVESGGGLVQAGGSLRLTCAASGRTFPLNVMGWYRQAPGKERELVAAITVSAGSTYYADSVKGRFTISRDNAKNTVYLQMNSLKPEDTAVYYCAKATSSFYHYRYDYWGQGTQVTVSS” as the sequence, how does the “polyreactivity (PSR sort gate)” value read?
Answer: low polyreactivity

Question: For “QDQHVESGRGLVQAGGSLRLSCAASGLIFPRNAMGWYRQAPGKERELVAVISRSGTSTYYADSVKGRFTISRDNAKNTVYLQMNSLKPEDTAVYYCAAYSRRGSSLRGRYGYWGQGTQVTVSS”, which “polyreactivity (PSR sort gate)” value is on record?
Answer: high polyreactivity

Question: For “QVQLVESGGGLVQAGGSLRLSCAASGIISSVYAMGWYRQARGKERELVAAISGSGGSTYYADSVKGRFTISRDNAKNTVYLQMNSLKPEDTAVYYCAKGYQYQGNSYGYWGQGTQVTVSS”, which “polyreactivity (PSR sort gate)” value is on record?
Answer: low polyreactivity

Question: Which “polyreactivity (PSR sort gate)” value does the source give for “QVQLVESGGGLVQAGGSLRLSCAASGFIFRHYTMGWYRQAPGKERELVAAISSGGSTYYADSVKGRFTISRDNEKNTVYLQMNSLKPEDTAVYYCAARSRIYGLLFYYWGLGTQVTVSS” here?
Answer: high polyreactivity

Question: With “QVQLVESGGGLVQAGGSLRLSCAASGFTFKNNAMGWYRQAPGKEREFVASISSGSTNYADSVKGRFTISRDNAKYTVYLQMNSLKPEDTEVYYCIRAPYRYSEPDYRSDFWGQGTQVTVSS” as the sequence, how does the “polyreactivity (PSR sort gate)” value read?
Answer: low polyreactivity

Question: For “QVQLVESGGGLVQAGGSLRLSCAASGSTFTRYGMGRYRQAPGKERELVAAITTSGSSTYYADSVKGRFTISRDNAKNTVYLQMNSLKPEDTAVYYCAADWSSWGFDYWGQGTQVTVSS”, which “polyreactivity (PSR sort gate)” value is on record?
Answer: low polyreactivity

Question: With “QVQLVESGGGLVQAGGSLRLSCAASGLTFLKYAMGWYRQAPGKERELVAAITGSGGRTYYADSVKGRFTISRDNSKNTVYLHMNSLKPEDTAVYYCAADDYFHDDYWGLGTQVTVSS” as the sequence, how does the “polyreactivity (PSR sort gate)” value read?
Answer: high polyreactivity

Question: With “QVQLVESGRGLVQAGGSLRLSCAASGITYGNNAMGWYRQAPGKERELVATITSSGGSTYYADSVKGRFTISRDNAKNTVYSQMNSLKPEDTAVYYCAARQPGTRYPYDYWGQGTQVTVSS” as the sequence, how does the “polyreactivity (PSR sort gate)” value read?
Answer: high polyreactivity
